Measured values published in the RNAGym collection of RNA variant scans (doi:10.1073/pnas.2313332121).

B1: TPR t1 (parent)
chain: GACCAAUCUGCCCUCAGAGCUCGAGAACAUCUUCGGAUGCAGAGGAGGCAGGCUUCGGUGGCGCGAUAGCGCCAACGUCCUCAACCUCCAAUGCAUCCCACCACAUGAUGAUGCCUGAAGAGCCUUGGUUUUUUG

Variants of: B1
Experiment: polymerase ribozyme fitness, log enrichment relative to wild type (log ratio); higher = more active; in vitro selection for triplet polymerase activity
In short: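 After PCR construction and transcription, each subunit's mutant library from a heterodimeric triplet polymerase ribozyme was annealed with a biotinylated primer, the partner subunit and triplets. Incubation was frozen, at −7 °C, and extended constructs were gel-excised, bound to streptavidin beads and amplified by RT-PCR, in one selection round done in triplicate. Fitness is the logarithm of a genotype's enrichment divided by that of the wild type, from inverse-variance-weighted replicate averages of Illumina-sequenced inputs and outputs. The base of the logarithm is 2, and genotypes needed ≥10 input reads and ≥1 read per output.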

| Variant | polymerase ribozyme fitness (log ratio) |
| --- | --- |
| GACCAAUCUGCCCUCAGAGCUCGAGAACAUCUUCGGAUGCAGAUGAGGCAGGCUUCGGUGGCGCGAUAGCGCCAACGUCCUCAACCUCUAAUGCAUCCCACCACAUGAUGUUGCCUGAAGAGCCUUGGUUUUUUG | -4.49 |
| GACCAAUCUGCCCUCAGAGCUCGAGAACAUCUUCGUAUGCAGAUGAGGCAGGCUUCGGUGGCGCGAUAGCGCCAGCGUCCUCAACCUCCAAUGCAUCCCACCACAUGAUGACGCCUGAAGAGCCUUGGUUGUUUG | -1.21 |
| GACCAAUCUGCCCUCAGAGCUCGAGAACAUCUUCGGAUGCAGAGGAGGCAGGCUUCGGUGACGCGAUAGCACCAACGUCCUCAACCUCCAAUGCAUCCCACCACAUGAUGAUGCCUGAAGAGCCUUGGUUUUUUG | -2.39 |
| GACCAAUCUGCCCUCAGAGCUCGACAACAUCUGUGGAUGCAGAGGUGGCAGGCUUCGGUGGCGCGAUAGAGCCAACGUCCUCAACCUCCAAUGCAUCCCACCACAUGAUGAUGCCUGAAGAGCCUUGGUUUUUUG | -8.69 |
| GACCAAUCUGCCCUCAGAGCUCGAGAACAUCUUCGGAUGCAGAGGAGGCAGGGUUCGGUGGCGCGAUAGCGCCAACGUCCUCAACCUCCAAUGCAUCCCACCACAUGAUGAUGCCUGAAGAGCAUUAGUUUUUUG | 0.953 |
| GACCAAUCUGCCCUCAGAGCUCGAGAACAUCUUCGGAUGCAGAGGAGGCAGGCUUCGGUUGCGCGAUAGCGCCAACGUCCUCAGCUUCCAAUGCAUCCCACCACAUGAUGAUGCCUGAAGAGCCUUGGUUUUUUC | -0.459 |
| GACCAAUCUGCCCUCAGAGGUCGAGAACAUUUUCUGAUGCAGAGGAGGCAGGCUUCGGUGGCGCGAUAGCGCCAACGUCCUCAACCUCCAAUGCAUCCCACCACAUGAGGAUGCCUGAAGAGCCUUGGUUUUUUG | -4.7 |
| GACAAAUCUGCCCUCAGAGCUCGAGAACAUCUUCGGAUGCAGAGGAGGCAGGCUUGGGUGGCGCGAUAGCGCCAACGUCCUCAACCUCCAAUGCAUCCCACCACAUGAUGAUGCCUGAAGAGCCUUGGUUUUUUG | -1.83 |
| GACCAUUCUGCCCUCAGAGCUCGAGAACAUCUUCGGAUGCAGAGGAGGCAGGCUUCGGUGGCGCGAUAGCGCCAACGUCCUCAACCUCCAAAGCAUCCCACCACAUGAUGAUGCCUGAAGAGCCUUGGUUUUUUG | -2.82 |
| GACCAAUCUGCCCUCAGAGCUCGAGAACAUCUUCGGAUGCAGAGGAGGCAGGCUUCGGUGGCGCGAUAGCGCCCACGUCCUCAACCUCCAAUGCAUCCCAGCACAUGAAGAUGCCUGAAGAGCCUUGGUUUUUUG | -6.47 |
| GACCAAUCUGCCUUCAGAGCUCGAGAACAUCUUCGGAUGCAGACGAGGCAGGCUUCGGUGGCGCGAUAGCGCCCACGUCCUCAACCUCCAAUGCAUCCCACCACAUGAUGCUGCCUGAAGAGCCUUGGUUUUUUG | -0.273 |
| GACCAAUCUGCCUUCAGAGCUCGAGAACAUCUUUGGAUGCAGAGGAGGCAGGCUUCGGUGGAGCGAUAGCGCCAACGUCCUCAACCUCCAAUGCAUCCCACCACAUGAUGAUGCCUGAACAGCUUUGGUUUUUUG | -6.16 |
| GACCAAUCUGCCCUCAGAGCUCGAGAACAUCUUCGGAUGCAGAGGAGGCAGGCUUCGGUGGCGCGAUAGCGCCAACGUCCUCAACCUCCAAUGCAUCCGACCACAUGAUGAUGCCUGAAGAGCCUUGGUUUUUUG | -7.03 |
| GACCAAUCUGCCCUCAGAGCUCGAGAACAUCUUCGGAUGCAGAGGAGGCAGGCUUCGGUGGCGCGAUAGCCCCAACGUCCUCAACCUCCAAUGCUUCCCACCACAUGAUGGUGCCUGAAGAGUCUUGGUUUUUUG | -3.04 |
| GACCAAUCUGCCCUCAGAGCUCGAGAACAUCUUCGCAUGCAGAGGAGGCAGGCUUCGGUGCCGCGAUAGCGCCAACGUCCUCAACUUCCAAUGCAUCCCACCACAUGAUGAUGUCUGAAGAGCCUUGGUUUUUUG | -6.11 |
| GACCAAUCUGCCCUCAGAGCUCGAGAACAUCUUCGGAUACAGAGGAGGCUGGCUUCGGUGGCGCGAUAGCGCCAACGUCCUCAACCUCCAAUGCAUCCCACCACAUGAUGAUGCCUGUAGAGCCUUGGUUUUUUG | -0.352 |
| GACCAAUGUGCCCUCAGAGCUCGAGAACAUCUUCGGAUGCAGAGGAGGCAGGCUUCGGUGGCGCGGUAGCGCCAACGUCCUCAAACUCCAAUGCAUCCCACCACAUGAUGAUGUCUGAAGAGCCUUGGUUUUUUG | -3.3 |
| GACCAAUCUGCCCUCAGAGCUCGAGAUCAUCUUCGGAUGCAGAGGAGGCAGGCUUCGGUGGCGCGAUGGCGCCAACGUCCUCAACCUCCAAUGCAUCCCACCACAUGAUGAUGCCUGAAGAGCCUUGGUUUUUUG | -5.61 |
| GACCAAUCUGCCCUCAGAGCUCGAGAACAUCUUCGGAUGCAGAGGAGGCAGGCUUCGGUGGCGCGAUACCGCCAACGUCCUCAACCUCCAAUGCAUCCCACCACAUGAUGCUGCCUGAAGAGCCUUGGUUUUUUG | -0.894 |
| GACCAAUGUGCCCUCAGCGCUCGAGAACAUCUUCGGAUGCAGAGGAGGCAGGCUUCGGUGGCGCGAUAGCGCCAACGUCCUCAACCUCAAAUGCAUCCCACCACAUGAUGAUGCCUGAAGAGCCUUGGUUUUUUG | -0.827 |
| GACCAAUCUGCACUCAGAGCUCGAGAACAUCUUCGGAUGCAGAGGAAGCAGGCUUCGGUGGCGCGAUAGCGCCAACGUCCUCAACCUCCAAUGCAUCCCACCACAUGAUGAUGCCUGAAGAGCCUUGGUUUUUUG | -1.98 |

| Variant | polymerase ribozyme fitness (log ratio) |
| --- | --- |
| GACCACUCUGCCCUCAGAGCUCGAGAACAUCUUCGGAUGCAGAGGAGGCAGGCUUCGGUGGCGCGAUAGCGUCAACGUCCUCAACCUCCAAUGCAUCCCACCACCUGAUGAUGCCUGAAGAGCCUUGGUUCUUUG | -2.59 |
| GACCAAUCUGCCCUCAGAGCUCGAGAACAUCUUCGGAUGCCGAGGAGACAGGCUUCGGUUGCGCGAUAGCGCCAACGUCCUCAACCUCCAAUGCAUCCCACCACAUGAUGAUGCCUGAAGAGCCUUGGUUUUUUU | -2.21 |
| GACCAAUCUGCCCUCAGAGCUCGAGAACAUCUUCGGAUGCAGAGGAGGCAGGCUUCGGUGGCGCGAUAUCGCCAACGUCCUCAACCUCAAAUGCAUCCCACCACAUGAUGAUGCCUGAAGAGCCUUGGUUUUUUG | -0.471 |
| GACCAAUCUGCUCUCAGAGCUCGAGAACAUCUUCGGAUGCAGAGGAGGCAGGCUUCGGUGGCGCGAUAUCGCCAACGUCCUCAACCUCCAAUGCAUCCCACCACAUGAUGAUGCCUGAAGAGCCUUGGUUUUUUG | 1.01 |
| GACCAAUCUGCCCUCAGAGCUCGAGAACAUCUUCGGAUGCAGAGGAGGCAGGCUUCGGUGGUGCGAUAGCGCCAACGUCCUCAACCUCCAAUGCAUUCCACCACAUGAUGAUGCGUGAAGAGCCUUGGUUUUUUG | -3.22 |
| GACCAAUCUGCCCUCAGAGCUCGAGAACAUCUUCGGAUGCAGAGGAGGCAGGCUUCGGUGGCGCGAUAGCGCCAACGUCCUCAACCUCCAAUGCUUCCCACCACAUGAUGAUGCCGGGAGAGCCUUGGUUUUUUG | -2.78 |
| GACCAAUCUGCCCUCAGAGCUCGAGAACAUCUUCGGAUGCAGAGGAGGCAGGCUUCGGUGGCGCGAUAGCGCCAACGUCCUCAAUCUCCAAUGGAUCCCACCAUAUGAUGAUGCCUGAAGAGCCUUGGUUUUUUG | -1.9 |
| GACCAAUCUGCCCUCAGAGCUCGAGAACAUCUUCGGAUGCAGAGCAGGCAGGCUUCGGUGGCACGAUAGCGCCAACGUCCUCAACCUCCAAUGCAUCCCACCACAAGAUGAUGCCUGAAGAGCCUUGGUUUUUUG | -1.21 |
| GACCAAUAUGCCCUCAGAGCUCGAGAACAUCUUCGGAUGCAGAGGAGUCAGGCUUCGGUGGCGCGAUAGCGCCAACGUCCUCAACCUCCAAUGCAUCCCACCACAUGAUGAUGCCUGAAGAGCCUUGGUUUUUUG | -0.337 |
| GACCCAUCUGCCCUCAGAGCUCGAGAACAUCUUCGGAUGCAGAGGAGGCAGGCUUCGGUGGCGCGAUAGCGCCAACGUCCUCAACCUCCAAAGCAUCCCAUCACAUGAUGAUGCAUGAAGAGCCUUGGUUUUGUG | -4.61 |
| GACCAAUCUGCCCUCAGAGCUCGAGAACAUCUUCGGAUGCAGAGGAGGCAGGCGGCGGUCGCGCGAUAGCGCCAACGUCCUCAAUCUCCAAUGCAUCCCACCACAUGAUGAUGCCUGAAGAGCCUUGGUUUUUUG | -6.29 |
| GACCAAUCUGCCCUCAGAGCUCGAGAACAUCUUCGGAUGCAGAGGAGGGAGGCUUCGGUGGCGCGAUAGCGCCAACGUCCUCAACCUCCAAUGCAUCCCAUCACAUGAUGAUGCCUGAAGAGCCUUGGUUCUUUG | -0.189 |
| GACCAAUCUGCCCUCAGAGCUCGAGAACUUCUUCGGAUGCAGAGGAGGCAGGCUUUGGUGGCGCGAUAGCGCCAACGUCCUCAGCCUCCAAUGCAUUCCACCACAUGAUGAUGCCUGAAGAGCCUUGGUUUUUUG | -3.9 |
| GACCAAUCUGCCCUCAAAGCUCGAGAACAUCUUCGGAUGCAGAGGAGGCAGGCUUCGGUGGCGCGAUAGAGCCAACGUCCUCAACCUCCAAUGCAUCCCACCACAUGAUGAUGCCUGAAGAGCCUUGGUUUUUUG | -4.58 |
| GACCAAUCUGCCCUCAGAGCUCGAGAACAUCUUCGGAUGCAGAGGAGGCAGGCUUCGGUGGCGCGAUAGCGCCAACGUCAUCAACCUCCAAUGCAUACCACCACAUUAUGAUGCUUGAAGAGCCUUGGUUUUUUG | -7.92 |
| GACCAAUCUGCACUCAGAGCUCGAGAACAUCUUCGGAUGCAGAGGAGGCAGGCUUCGGUGGCGCGAUAGCGCCAACGUCCUCAACCUCCAAUGCAUCCCACCACAUGAUGAUGCCUCAAGAGCCUUGGUUUUUUG | -3 |
| GACCAAUCUGCCCUCAGAGCUCGAGAACAUCUUCGGAUGCAGAGGAGGCAGGCUUCGGUGGCGCGAUAGGGCCAACGUCCUCAACCUCCAAUGCAUCCCACCACAUGAUGAUGCCUGAAGAGGCUUGGUUCUUUG | 0.0447 |
| GACCAAUCUGCCCUCAGAGCUCGAGAACAUCUUCGGAUGCGGAGGAAGCAGGCUUCGGUGGCGCGAUAGCGCCAAAGUCCUCAACCUCCAAUGCAUCCCAUCACAUGAUGAUGCCUGAAGAGCCUUGGUUUUUUG | -3.57 |
| GACCCAUCUGCCCUCAGAGCUCGAGAACAUCUUCGGAUGCAGAGGAGGCAGGCUUUGGUGGCGCGAUAGCGCAAACGUCCUCAACCUCCAAUGCAUCCCACCACAUGAUGAUGCGUAAAGAGCCUUGGUUUUUUG | -7.51 |
| GACCAAUCUGCCCUCAGAGCUCGAGAACAUCUUCGGAUGCAAAGGAGGCAGGCUUCGGUGGCGCGAUAGCGCCAACGUCCUCAACCUCCAAUGCAUCCCACCACAUGAUGAUGCCUGAAGAGCCUUGGUUUUUUU | -2.72 |
| GACCAAUCUGCCCUCAGAGCUCGAGAACAUCUUCGGAUGCAGAGGAGACAGGCUUCGGUGACGCGAUAGCGCCAACGUCCUCAACCUCCAAUGCAUCCCACCCUAUGAUGAUGCCUGAAGAGCCUUGGUUUUUUG | -5.34 |
